Measured values taken from publication PMC5339705, “OGG1-DNA interactions facilitate NF-κB binding to DNA targets”.

B1: κB1-G3 (dsDNA)
DNA 1: TTCCCTGGTCCCCGGGCTTTTCCAGACATCG
DNA 2: CGATGTCTGGAAAAGCCCGGGGACCAGGGAA
modifications: 8-oxoG at strand 2 position 27 (opposite C5 of strand 1)
B2: κB2-G3 (dsDNA)
DNA 1: TGAGGGGACCCTGAGCTCAGGGAATTTCCCTGG
DNA 2: CCAGGGAAATTCCCTGAGCTCAGGGTCCCCTCA
modifications: 8-oxoG at strand 1 position 4 (number label read as following the base)
B3: κB2-G6 (dsDNA)
DNA 1: B2 DNA 1
DNA 2: B2 DNA 2
modifications: 8-oxoG at strand 2 position 23 (opposite C11 of strand 1)
B4: κB2-G4 (dsDNA)
DNA 1: B2 DNA 1
DNA 2: B2 DNA 2
modifications: 8-oxoG at strand 1 position 7
B5: κB2-Wt (dsDNA)
DNA 1: B2 DNA 1
DNA 2: B2 DNA 2

Legend:
Conditions in all cases: protein: commercial;commercial; tags: ;; copies: 1;1; label: 5' biotin on strand 2; blunt
[1] = molecular target: T1, p65 (RelA);p50 (NF-kB1) (;, UniProt Q04206;P19838 1-551;1-433, |); assay: EMSA; with OGG1 4 ng; highest shifted amount of κB1 oligos; 10 mM Tris-HCl pH 8.0, 5 mM NaCl, 1 mM EDTA, 1 mM DTT, 0.1 mg/ml BSA, 0.1 µg/µl poly(dI-dC) (stated for NE reactions), 10 fmol probe, 10 µl, RT 5-10 min; 6% gel 0.5x TBE 4 °C
[2] = molecular target: T1, p65 (RelA);p50 (NF-kB1); assay: EMSA; with OGG1 4 ng; higher than Wt; 10 mM Tris-HCl pH 8.0, 5 mM NaCl, 1 mM EDTA, 1 mM DTT, 0.1 mg/ml BSA, 0.1 µg/µl poly(dI-dC) (stated for NE reactions), 10 fmol probe, 10 µl, RT 5-10 min; 6% gel 0.5x TBE 4 °C
[3] = molecular target: T1, p65 (RelA);p50 (NF-kB1); assay: EMSA; no OGG1; complex from 5 min; 10 mM Tris-HCl pH 8.0, 5 mM NaCl, 1 mM EDTA, 1 mM DTT, 0.1 mg/ml BSA, 0.1 µg/µl poly(dI-dC) (stated for NE reactions), 10 fmol probe, 10 µl, RT 5-10 min; 6% gel 0.5x TBE 4 °C

T1 sequence (Q04206 whole entry, chain 1 of 2): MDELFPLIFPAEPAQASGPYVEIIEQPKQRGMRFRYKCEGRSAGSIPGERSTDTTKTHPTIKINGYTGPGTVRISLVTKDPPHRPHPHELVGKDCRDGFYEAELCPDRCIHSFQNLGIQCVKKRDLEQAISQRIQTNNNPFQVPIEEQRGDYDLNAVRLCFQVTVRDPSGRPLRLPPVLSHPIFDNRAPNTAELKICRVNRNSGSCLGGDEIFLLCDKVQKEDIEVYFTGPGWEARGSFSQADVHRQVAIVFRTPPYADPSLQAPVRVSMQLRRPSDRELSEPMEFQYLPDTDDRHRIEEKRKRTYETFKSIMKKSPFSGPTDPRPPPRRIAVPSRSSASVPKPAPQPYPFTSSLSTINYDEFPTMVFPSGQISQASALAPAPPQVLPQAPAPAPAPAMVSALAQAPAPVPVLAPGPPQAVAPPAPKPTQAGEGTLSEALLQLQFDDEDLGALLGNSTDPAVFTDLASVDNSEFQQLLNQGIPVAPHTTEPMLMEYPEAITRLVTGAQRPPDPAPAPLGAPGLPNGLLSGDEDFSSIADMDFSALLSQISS
T1 sequence (P19838 1-433, chain 2 of 2): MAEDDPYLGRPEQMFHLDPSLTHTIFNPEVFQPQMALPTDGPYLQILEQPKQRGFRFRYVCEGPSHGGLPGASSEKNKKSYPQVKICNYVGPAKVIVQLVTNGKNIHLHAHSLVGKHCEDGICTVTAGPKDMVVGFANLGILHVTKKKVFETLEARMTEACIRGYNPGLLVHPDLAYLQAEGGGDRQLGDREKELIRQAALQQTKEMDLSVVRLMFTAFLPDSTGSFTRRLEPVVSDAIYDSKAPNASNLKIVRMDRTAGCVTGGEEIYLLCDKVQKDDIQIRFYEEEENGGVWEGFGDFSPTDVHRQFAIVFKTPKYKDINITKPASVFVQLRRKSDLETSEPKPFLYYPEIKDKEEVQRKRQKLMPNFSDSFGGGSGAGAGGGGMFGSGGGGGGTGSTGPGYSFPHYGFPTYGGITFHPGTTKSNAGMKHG

Binder	binding result [2]	also measured
B1		binding result [1]: binds
B2	binds	
B3	binds	
B4	binds	
B5		binding result [3]: binds
